Measurements as given in the supplement of paper PMC11246515.
± gives the standard deviation of the averaged measurements.

Test: total protein half-life in vivo (active degradation + dilution); higher = more stable protein
[1] = E. coli NCM3722 delta-clpP delta-lon delta-hslV, growth: N-lim chemostat, doubling time 6 h
[2] = E. coli NCM3722 delta-clpP, growth: N-lim chemostat, doubling time 6 h
[3] = E. coli NCM3722 delta-hslV, growth: N-lim chemostat, doubling time 6 h
[4] = E. coli NCM3722 delta-lon, growth: N-lim chemostat, doubling time 6 h
[5] = E. coli NCM3722 delta-smpB, growth: N-lim chemostat, doubling time 6 h
[6] = wild type E. coli NCM3722, growth: C-lim chemostat, doubling time 3 h
[7] = wild type E. coli NCM3722, growth: C-lim chemostat, doubling time 6 h
[8] = wild type E. coli NCM3722, growth: C-lim chemostat, doubling time 12 h
[9] = wild type E. coli NCM3722, growth: N-lim chemostat, doubling time 6 h
[10] = wild type E. coli NCM3722, growth: N-lim chemostat, doubling time 12 h
[11] = wild type E. coli NCM3722, growth: P-lim chemostat, doubling time 6 h
[12] = wild type E. coli NCM3722, growth: P-lim chemostat, doubling time 12 h

## MGGISIWQLLIIAVIVVLLFGTKKLGSIGSDLGASIKGFKKAMSDDEPKQDKTSQDADFTAKTIADKQADTNQEQAKTEDAKRHDKEQV
[1]
  total protein half-life in vivo: 4.809 ± 0.026 h
[2]
  total protein half-life in vivo: 4.72 ± 0.96 h
[3]
  total protein half-life in vivo: 4.51 ± 0.3 h
[4]
  total protein half-life in vivo: 4.05 ± 0.54 h
[5]
  total protein half-life in vivo: 4.55 ± 0.22 h
[6]
  total protein half-life in vivo: 2.93 ± 0.082 h
[7]
  total protein half-life in vivo: 5.337 ± 0.019 h
[8]
  total protein half-life in vivo: 9.34 ± 0.37 h
[9]
  total protein half-life in vivo: 4.72 ± 0.21 h
[10]
  total protein half-life in vivo: 9.53 ± 2.4 h
[11]
  total protein half-life in vivo: 4.41 ± 0.37 h
[12]
  total protein half-life in vivo: 8.96 ± 0.53 h

## MGKALVIVESPAKAKTINKYLGSDYVVKSSVGHIRDLPTSGSAAKKSADSTSTKTAKKPKKDERGALVNRMGVDPWHNWEAHYEVLPGKEKVVSELKQLAEKADHIYLATDLDREGEAIAWHLREVIGGDDARYSRVVFNEITKNAIRQAFNKPGELNIDRVNAQQARRFMDRVVGYMVSPLLWKKIARGLSAGRVQSVAVRLVVEREREIKAFVPEEFWEVDASTTTPSGEALALQVTHQNDKPFRPVNKEQTQAAVSLLEKARYSVLEREDKPTTSKPGAPFITSTLQQAASTRLGFGVKKTMMMAQRLYEAGYITYMRTDSTNLSQDAVNMVRGYISDNFGKKYLPESPNQYASKENSQEAHEAIRPSDVNVMAESLKDMEADAQKLYQLIWRQFVACQMTPAKYDSTTLTVGAGDFRLKARGRILRFDGWTKVMPALRKGDEDRILPAVNKGDALTLVELTPAQHFTKPPARFSEASLVKELEKRGIGRPSTYASIISTIQDRGYVRVENRRFYAEKMGEIVTDRLEENFRELMNYDFTAQMENSLDQVANHEAEWKAVLDHFFSDFTQQLDKAEKDPEEGGMRPNQMVLTSIDCPTCGRKMGIRTASTGVFLGCSGYALPPKERCKTTINLVPENEVLNVLEGEDAETNALRAKRRCPKCGTAMDSYLIDPKRKLHVCGNNPTCDGYEIEEGEFRIKGYDGPIVECEKCGSEMHLKMGRFGKYMACTNEECKNTRKILRNGEVAPPKEDPVPLPELPCEKSDAYFVLRDGAAGVFLAANTFPKSRETRAPLVEELYRFRDRLPEKLRYLADAPQQDPEGNKTMVRFSRKTKQQYVSSEKDGKATGWSAFYVDGKWVEGKK
[1]
  total protein half-life in vivo: 6.56 ± 0.22 h
[2]
  total protein half-life in vivo: 6.56 ± 0.69 h
[3]
  total protein half-life in vivo: 5.9165 ± 0.0035 h
[4]
  total protein half-life in vivo: 6.34 ± 0.074 h
[5]
  total protein half-life in vivo: 5.43 ± 0.18 h
[6]
  total protein half-life in vivo: 2.57 ± 0.091 h
[7]
  total protein half-life in vivo: 5.9591 ± 0.0017 h
[8]
  total protein half-life in vivo: 10.5 ± 0.44 h
[9]
  total protein half-life in vivo: 5.88 ± 0.34 h
[10]
  total protein half-life in vivo: 12.4 ± 0.35 h
[11]
  total protein half-life in vivo: 5.24 ± 0.54 h
[12]
  total protein half-life in vivo: 11.5 ± 0.38 h

## MGKLTLLLLAILVWLQYSLWFGKNGIHDYTRVNDDVAAQQATNAKLKARNDQLFAEIDDLNGGQEALEERARNELSMTRPGETFYRLVPDASKRAQSAGQNNR [P0A6S5]
[1]
  total protein half-life in vivo: 5.44 h
[2]
  total protein half-life in vivo: 3.17 h
[3]
  total protein half-life in vivo: 4.05 h
[4]
  total protein half-life in vivo: 4.37 h
[6]
  total protein half-life in vivo: 2.7 h
[7]
  total protein half-life in vivo: 4.69 ± 0.55 h
[9]
  total protein half-life in vivo: 3.47 h
[10]
  total protein half-life in vivo: 6.03 h
[12]
  total protein half-life in vivo: > 16 h

## MGLPPLSKIPLILRPQAWLHRRHYGEVLSPIRWWGRIPFIFYLVSMFVGWLERKRSPLDPVVRSLVSARIAQMCLCEFCVDITSMKVAERTGSSDKLLAVADWRQSPLFSDEERLALEYAEAASVTPPTVDDALRTRLAAHFDAQALTELTALIGLQNLSARFNSAMDIPAQGLCRIPEKRS
[1]
  total protein half-life in vivo: 6.87 ± 0.28 h
[2]
  total protein half-life in vivo: 6.4 ± 0.37 h
[3]
  total protein half-life in vivo: 6.22 ± 0.48 h
[4]
  total protein half-life in vivo: 6.463 ± 0.023 h
[5]
  total protein half-life in vivo: 5.67 ± 0.46 h
[6]
  total protein half-life in vivo: 2.74 ± 0.068 h
[7]
  total protein half-life in vivo: 5.52 ± 0.59 h
[8]
  total protein half-life in vivo: 12.1 ± 0.48 h
[9]
  total protein half-life in vivo: 6 ± 0.46 h
[10]
  total protein half-life in vivo: 11.3 ± 3.4 h
[11]
  total protein half-life in vivo: 6.48 ± 0.71 h
[12]
  total protein half-life in vivo: 13.1 ± 0.5 h

## MGNNVVVLGTQWGDEGKGKIVDLLTERAKYVVRYQGGHNAGHTLVINGEKTVLHLIPSGILRENVTSIIGNGVVLSPAALMKEMKELEDRGIPVRERLLLSEACPLILDYHVALDNAREKARGAKAIGTTGRGIGPAYEDKVARRGLRVGDLFDKETFAEKLKEVMEYHNFQLVNYYKAEAVDYQKVLDDTMAVADILTSMVVDVSDLLDQARQRGDFVMFEGAQGTLLDIDHGTYPYVTSSNTTAGGVATGSGLGPRYVDYVLGILKAYSTRVGAGPFPTELFDETGEFLCKQGNEFGATTGRRRRTGWLDTVAVRRAVQLNSLSGFCLTKLDVLDGLKEVKLCVAYRMPDGREVTTTPLAADDWKGVEPIYETMPGWSESTFGVKDRSGLPQAALNYIKRIEELTGVPIDIISTGPDRTETMILRDPFDA [P0A7D4]
[1]
  total protein half-life in vivo: 4.49 ± 0.41 h
[2]
  total protein half-life in vivo: 4.35 ± 0.28 h
[3]
  total protein half-life in vivo: 4.567 ± 0.026 h
[4]
  total protein half-life in vivo: 4.73 ± 0.3 h
[5]
  total protein half-life in vivo: 4.3 ± 0.15 h
[6]
  total protein half-life in vivo: 3.04 ± 0.093 h
[7]
  total protein half-life in vivo: 5.86 ± 0.3 h
[8]
  total protein half-life in vivo: 10.4 ± 1.6 h
[9]
  total protein half-life in vivo: 4.39 ± 0.098 h
[10]
  total protein half-life in vivo: 7.26 ± 0.18 h
[11]
  total protein half-life in vivo: 6.09 ± 0.23 h
[12]
  total protein half-life in vivo: 10.6 ± 0.72 h

## MGNRTKEDELYREMCRVVGKVVLEMRDLGQEPKHIVIAGVLRTALANKRIQRSELEKQAMETVINALVK [P0ACX5]
[3]
  total protein half-life in vivo: 3.93 h
[6]
  total protein half-life in vivo: > 4 h
[7]
  total protein half-life in vivo: 4.79 h
[10]
  total protein half-life in vivo: 15.3 h
[11]
  total protein half-life in vivo: 5.05 ± 1.9 h
[12]
  total protein half-life in vivo: 12.6 ± 1.2 h

## MGNSDRKPGLIKRLWKWWRTPSRLALGTLLLIGFVGGIVFWGGFNTGMEKANTEEFCISCHEMRNTVYQEYMDSVHYNNRSGVRATCPDCHVPHEFVPKMIRKLKASKELYGKIFGVIDTPQKFEAHRLTMAQNEWRRMKDNNSQECRNCHNFEYMDTTAQKSVAAKMHDQAVKDGQTCIDCHKGIAHKLPDMREVEPGF [P0ABL5]
[2]
  total protein half-life in vivo: 4.79 h
[5]
  total protein half-life in vivo: 5.22 ± 1.8 h
[7]
  total protein half-life in vivo: 3.97 h
[8]
  total protein half-life in vivo: 9.62 h
[12]
  total protein half-life in vivo: 8.81 h

## MGNTSIQTQSYRAVDKDAGQSRSYIIPFALLCSLFFLWAVANNLNDILLPQFQQAFTLTNFQAGLIQSAFYFGYFIIPIPAGILMKKLSYKAGIITGLFLYALGAALFWPAAEIMNYTLFLVGLFIIAAGLGCLETAANPFVTVLGPESSGHFRLNLAQTFNSFGAIIAVVFGQSLILSNVPHQSQDVLDKMSPEQLSAYKHSLVLSVQTPYMIIVAIVLLVALLIMLTKFPALQSDNHSDAKQGSFSASLSRLARIRHWRWAVLAQFCYVGAQTACWSYLIRYAVEEIPGMTAGFAANYLTGTMVCFFIGRFTGTWLISRFAPHKVLAAYALIAMALCLISAFAGGHVGLIALTLCSAFMSIQYPTIFSLGIKNLGQDTKYGSSFIVMTIIGGGIVTPVMGFVSDAAGNIPTAELIPALCFAVIFIFARFRSQTATN
[7]
  total protein half-life in vivo: 3.02 h
[8]
  total protein half-life in vivo: 4.27 ± 0.49 h
